This assay concerns the target human prostate-specific membrane antigen (PSMA) (human) (UniProt Q04609). Put plainly: cell-based or functional assay. Particulars: for IL-2 content normalized for gene transfer efficiency, transduced PBLs on NIH3T3 feeder expressing PSMA + B7.1: scale: pg/ml divided by percentage transduced cells.

Chain of human prostate-specific membrane antigen (PSMA) (human) (Q04609 whole entry): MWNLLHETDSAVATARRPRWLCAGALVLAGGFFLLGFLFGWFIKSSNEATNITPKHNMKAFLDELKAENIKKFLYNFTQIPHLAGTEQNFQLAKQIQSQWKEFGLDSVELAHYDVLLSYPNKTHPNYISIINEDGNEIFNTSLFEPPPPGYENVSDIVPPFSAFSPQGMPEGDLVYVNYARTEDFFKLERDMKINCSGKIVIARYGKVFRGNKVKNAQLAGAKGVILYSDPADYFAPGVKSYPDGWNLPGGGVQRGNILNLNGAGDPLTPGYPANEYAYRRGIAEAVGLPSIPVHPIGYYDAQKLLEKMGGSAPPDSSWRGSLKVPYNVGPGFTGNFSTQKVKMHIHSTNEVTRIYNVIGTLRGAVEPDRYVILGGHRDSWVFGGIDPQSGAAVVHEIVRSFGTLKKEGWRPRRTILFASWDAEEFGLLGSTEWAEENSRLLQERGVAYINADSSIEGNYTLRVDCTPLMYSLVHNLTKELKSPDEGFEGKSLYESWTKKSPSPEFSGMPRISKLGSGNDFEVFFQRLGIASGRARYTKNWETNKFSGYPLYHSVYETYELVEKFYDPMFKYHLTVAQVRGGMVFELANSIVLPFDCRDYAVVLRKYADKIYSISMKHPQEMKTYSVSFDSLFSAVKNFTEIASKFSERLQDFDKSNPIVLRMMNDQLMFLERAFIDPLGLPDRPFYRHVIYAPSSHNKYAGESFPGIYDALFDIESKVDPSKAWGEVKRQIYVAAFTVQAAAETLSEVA
Chain of P28 fusion receptor (J591 scFv fused to human CD28) (P10747 114-220): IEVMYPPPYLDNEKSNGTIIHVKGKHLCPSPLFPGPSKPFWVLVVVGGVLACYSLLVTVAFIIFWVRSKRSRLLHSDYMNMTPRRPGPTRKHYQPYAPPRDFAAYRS

For “P28 fusion receptor (J591 scFv fused to human CD28) (from UniProt P10747 114-220)”, the IL-2 concentration in supernatant (ELISA, 24 h), transduced PBLs on NIH3T3 feeder expressing PSMA is below 50 pg/mL and the IL-2 concentration in supernatant (ELISA, 24 h), transduced PBLs on NIH3T3 feeder expressing PSMA + B7.1 was below 50 pg/mL.
As to “Pz1 fusion receptor (J591 scFv - human CD8 alpha hinge and transmembrane - intracellular domain of human TCR zeta) (from UniProt P01732 137-209)”, the IL-2 concentration in supernatant (ELISA, 24 h), transduced PBLs on NIH3T3 feeder expressing PSMA was below 50 pg/mL; the IL-2 concentration in supernatant (ELISA, 24 h), transduced PBLs on NIH3T3 feeder expressing PSMA + B7.1 was 164000 pg/mL; the IL-2 content normalized for gene transfer efficiency, transduced PBLs on NIH3T3 feeder expressing PSMA + B7.1 is 3280.
The matching figures for “Pz28 fusion receptor (Pz1 with the 41 amino acid intracellular domain of human CD28 at its C-terminus) (from UniProt P01732 137-209)”: below 50 pg/mL, 29700 pg/mL and 958.

(Values after patent US20040043401A1.)
